Assay results as given in patent US20240417464A1 (published 2024).
Substitutions are numbered along the chain they refer to. Values belong to the binder of their own block, whether it stands above or below them.

Assays:
[1] = target: T1, antibody-half molecule A1 with PF1H and PF1L-k0 (PF1H-DA303v2/PF1L-k0); assay: SPR (Biacore T200), about 50 RU of half molecule A captured on chip-bound biotinylated antigen peptide, half molecule B at 2.5 mg/mL as analyte (Example 10)
Procedure: (§1) The interaction between the obtained antibody-half molecules was analyzed using Biacore (registered trademark) T200. Biotin CAPture Kit, Series S (GE Healthcare) was used for the measurement, and HBS-EP+10X (GE Healthcare) diluted 1/10th was used as a running buffer. The measurement temperature was 25° C. For the sensor chip, Series S Sensor Chip CAP (GE Healthcare) onto which previously-biotinylated antigen peptides were allowed to interact and thereby immobilized was used. These chips were allowed to capture approximately 50 RU of the antibody-half molecule A of interest and then interact with the antibody-half molecule B of interest diluted with the running buffer at 2.5 mg/mL for 180 seconds at a flow rate of 30 μL/min, and measurement was carried out. The molar binding ratio was calculated based on the following Formula 2. The antibody-half molecule A captured on the chip was washed as described in the instructions attached to the kit, and the chip was regenerated and reused.
(§2) At this time, for the antibody-half molecule to be captured, PF1H (SEQ ID NO: 22), which is the H chain variable region portion of the anti-human IL6 receptor antibody described in WO 2009/041621, was used as the H chain variable region portion, PF1L (SEQ ID NO: 23), which is the L chain variable region portion of the anti-human IL6 receptor antibody described in WO 2009/041621, was used as the L chain variable region portion, and k0 was used as the L chain constant region portion. In addition, for the antibody-half molecules used as analytes, IC17H (SEQ ID NO: 24), which is the anti-KLH antibody described in WO 2015/174439, was used as the H chain variable region, IC17L (SEQ ID NO: 25), which is the anti-KLH antibody described in WO 2015/174439, was used as the L chain variable region, and k0 was used as L chain constant region.

[2] = target: T1, antibody-half molecule A1 with PF1H and …; assay: SPR (Biacore T200), about 50 RU of half molecule A captured on chip-bound biotinylated antigen peptide, half molecule B at 2.5 mg/mL as analyte
Procedure: as §1
as §2, with “the antibody-half molecules to be” for “the antibody-half molecule to be”, “used as the L chain” for “used as L chain”

[3] = target: antibody-half molecule A2 with PF1H and PF1L-k0 (PF1H-DA402v2/PF1L-k0); assay: as above
Procedure: as §1
as §2, with “the antibody-half molecules to be” for “the antibody-half molecule to be”, “used as the L chain” for “used as L chain”

[4] = target: antibody-half molecule A3 with PF1H and PF1L-k0 (PF1H-DA405v2/PF1L-k0); assay: as above
Procedure: as §1
as §2, with “the antibody-half molecules to be” for “the antibody-half molecule to be”, “used as the L chain” for “used as L chain”

[5] = target: antibody-half molecule A4 with PF1H and PF1L-k0 (PF1H-DA424v2/PF1L-k0); assay: as above
Procedure: as §1
as §2, with “the antibody-half molecules to be” for “the antibody-half molecule to be”, “used as the L chain” for “used as L chain”

[6] = target: antibody-half molecule A5 with PF1H and PF1L-k0 (PF1H-DA430v2/PF1L-k0); assay: as above
Procedure: as §1
as §2, with “the antibody-half molecules to be” for “the antibody-half molecule to be”, “used as the L chain” for “used as L chain”

[7] = target: antibody-half molecule A6 with PF1H and PF1L-k0 (PF1H-DA303v2.n.n/PF1L-k0); assay: SPR (Biacore T200), about 50 RU of half molecule A captured on chip-bound biotinylated antigen peptide, half molecule B at 2.5 mg/mL as analyte (Example 10)
Procedure: as §1, §2

[8] = target: antibody-half molecule A7 with PF1H and PF1L-k0 (PF1H-DA303v2.n.HATF.B/PF1L-k0); assay: as above
Procedure: as §1, §2

T1 sequence (heavy, as listed by the source): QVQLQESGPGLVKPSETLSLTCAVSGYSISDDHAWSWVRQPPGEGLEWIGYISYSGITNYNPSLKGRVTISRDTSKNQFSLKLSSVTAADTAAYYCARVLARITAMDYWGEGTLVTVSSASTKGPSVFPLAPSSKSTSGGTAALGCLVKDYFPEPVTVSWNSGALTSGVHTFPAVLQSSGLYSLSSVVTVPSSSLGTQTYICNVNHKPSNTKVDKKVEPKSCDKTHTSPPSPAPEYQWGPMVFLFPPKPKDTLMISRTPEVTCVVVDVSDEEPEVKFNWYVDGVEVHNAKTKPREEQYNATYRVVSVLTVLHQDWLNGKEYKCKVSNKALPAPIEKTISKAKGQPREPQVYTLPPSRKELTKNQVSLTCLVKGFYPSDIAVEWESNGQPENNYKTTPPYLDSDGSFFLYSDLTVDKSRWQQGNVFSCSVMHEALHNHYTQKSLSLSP
antibody-half molecule A6 with PF1H and PF1L-k0 (PF1H-DA303v2.n.n/PF1L-k0), sequence (heavy, as listed by the source): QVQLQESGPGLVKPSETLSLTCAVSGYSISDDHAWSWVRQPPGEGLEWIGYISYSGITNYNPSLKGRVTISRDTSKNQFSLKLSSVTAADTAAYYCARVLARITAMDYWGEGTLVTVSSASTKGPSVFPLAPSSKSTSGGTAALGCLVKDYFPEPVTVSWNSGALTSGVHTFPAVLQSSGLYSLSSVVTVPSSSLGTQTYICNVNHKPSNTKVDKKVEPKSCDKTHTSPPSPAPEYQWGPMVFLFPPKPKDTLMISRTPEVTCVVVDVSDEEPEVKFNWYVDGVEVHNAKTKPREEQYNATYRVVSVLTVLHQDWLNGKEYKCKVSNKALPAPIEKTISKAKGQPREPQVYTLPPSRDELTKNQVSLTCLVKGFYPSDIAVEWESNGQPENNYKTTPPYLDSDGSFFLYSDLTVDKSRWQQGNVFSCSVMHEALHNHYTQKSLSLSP
antibody-half molecule A4 with PF1H and PF1L-k0 (PF1H-DA424v2/PF1L-k0), sequence (heavy, as listed by the source): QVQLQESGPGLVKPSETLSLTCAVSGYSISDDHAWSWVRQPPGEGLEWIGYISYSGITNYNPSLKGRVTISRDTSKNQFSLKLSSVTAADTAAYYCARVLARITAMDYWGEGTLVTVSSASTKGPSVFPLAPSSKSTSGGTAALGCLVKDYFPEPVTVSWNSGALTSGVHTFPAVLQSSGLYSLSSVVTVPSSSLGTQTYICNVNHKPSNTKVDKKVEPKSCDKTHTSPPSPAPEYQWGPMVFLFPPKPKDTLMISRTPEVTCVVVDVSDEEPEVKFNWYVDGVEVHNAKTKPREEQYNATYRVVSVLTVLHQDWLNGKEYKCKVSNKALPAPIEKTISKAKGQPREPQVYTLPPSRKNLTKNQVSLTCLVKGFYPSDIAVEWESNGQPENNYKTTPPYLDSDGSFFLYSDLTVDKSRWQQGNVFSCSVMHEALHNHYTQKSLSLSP
antibody-half molecule A3 with PF1H and PF1L-k0 (PF1H-DA405v2/PF1L-k0), sequence (heavy, as listed by the source): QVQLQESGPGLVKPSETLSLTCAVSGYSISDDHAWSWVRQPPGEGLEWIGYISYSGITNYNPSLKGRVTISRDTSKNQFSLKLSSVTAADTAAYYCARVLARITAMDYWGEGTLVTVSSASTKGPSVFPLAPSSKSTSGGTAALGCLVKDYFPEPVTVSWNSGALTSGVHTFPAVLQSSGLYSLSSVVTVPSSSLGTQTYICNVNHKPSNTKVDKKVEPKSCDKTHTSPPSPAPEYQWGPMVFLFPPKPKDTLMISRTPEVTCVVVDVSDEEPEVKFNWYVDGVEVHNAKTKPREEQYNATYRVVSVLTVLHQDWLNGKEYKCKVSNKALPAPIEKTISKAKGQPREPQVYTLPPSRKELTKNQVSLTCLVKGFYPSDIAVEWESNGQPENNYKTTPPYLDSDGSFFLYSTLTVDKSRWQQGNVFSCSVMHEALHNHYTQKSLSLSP
antibody-half molecule A5 with PF1H and PF1L-k0 (PF1H-DA430v2/PF1L-k0), sequence (heavy, as listed by the source): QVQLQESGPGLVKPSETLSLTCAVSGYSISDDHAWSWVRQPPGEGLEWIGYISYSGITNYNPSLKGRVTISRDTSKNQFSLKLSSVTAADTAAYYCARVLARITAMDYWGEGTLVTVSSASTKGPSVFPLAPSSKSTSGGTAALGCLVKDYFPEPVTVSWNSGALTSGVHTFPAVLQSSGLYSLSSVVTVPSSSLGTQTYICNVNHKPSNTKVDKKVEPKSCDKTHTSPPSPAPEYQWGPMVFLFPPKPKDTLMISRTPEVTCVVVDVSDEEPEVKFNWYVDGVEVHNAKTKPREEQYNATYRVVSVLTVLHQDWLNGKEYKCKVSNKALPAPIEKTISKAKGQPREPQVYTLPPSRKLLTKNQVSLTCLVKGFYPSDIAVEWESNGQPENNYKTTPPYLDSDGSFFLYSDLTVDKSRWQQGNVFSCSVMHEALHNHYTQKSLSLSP
antibody-half molecule A7 with PF1H and PF1L-k0 (PF1H-DA303v2.n.HATF.B/PF1L-k0), sequence (heavy, as listed by the source): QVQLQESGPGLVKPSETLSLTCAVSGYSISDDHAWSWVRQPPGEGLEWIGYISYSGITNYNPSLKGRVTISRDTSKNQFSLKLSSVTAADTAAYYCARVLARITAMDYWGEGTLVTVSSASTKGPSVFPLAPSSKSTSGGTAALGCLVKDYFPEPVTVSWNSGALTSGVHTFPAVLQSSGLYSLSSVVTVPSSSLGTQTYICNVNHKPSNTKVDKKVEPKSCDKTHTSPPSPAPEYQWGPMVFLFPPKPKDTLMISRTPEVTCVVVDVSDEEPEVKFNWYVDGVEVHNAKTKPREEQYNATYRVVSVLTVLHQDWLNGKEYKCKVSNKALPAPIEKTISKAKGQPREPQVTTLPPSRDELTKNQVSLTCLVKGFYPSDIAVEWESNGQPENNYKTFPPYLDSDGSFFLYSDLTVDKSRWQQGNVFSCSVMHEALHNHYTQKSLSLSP
antibody-half molecule A2 with PF1H and PF1L-k0 (PF1H-DA402v2/PF1L-k0), sequence (heavy, as listed by the source): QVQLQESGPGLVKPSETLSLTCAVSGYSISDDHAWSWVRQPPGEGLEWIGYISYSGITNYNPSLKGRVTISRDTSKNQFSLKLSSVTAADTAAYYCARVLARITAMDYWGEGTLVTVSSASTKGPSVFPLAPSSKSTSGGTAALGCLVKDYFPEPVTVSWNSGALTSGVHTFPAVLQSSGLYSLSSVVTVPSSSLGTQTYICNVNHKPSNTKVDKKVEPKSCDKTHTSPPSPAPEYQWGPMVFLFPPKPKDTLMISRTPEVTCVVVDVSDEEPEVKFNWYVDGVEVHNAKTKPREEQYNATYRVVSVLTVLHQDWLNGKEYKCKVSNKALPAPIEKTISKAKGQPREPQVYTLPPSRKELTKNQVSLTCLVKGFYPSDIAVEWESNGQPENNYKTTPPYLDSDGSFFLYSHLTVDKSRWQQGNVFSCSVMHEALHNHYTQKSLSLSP

B1: antibody-half molecule B1 with IC17H and IC17L-k0 (IC17H-DB220v2/IC17L-k0) (antibody, human IgG1, kappa)
heavy: QVQLQQSGPQLVRPGASVKISCKASGYSFTSYWMHWVNQRPGQGLEWIGMIDPSYSETRLNQKFKDKATLTVDKSSSTAYMQLSSPTSEDSAVYYCALYGNYFDYWGQGTTLTVSSASTKGPSVFPLAPSSKSTSGGTAALGCLVKDYFPEPVTVSWNSGALTSGVHTFPAVLQSSGLYSLSSVVTVPSSSLGTQTYICNVNHKPSNTKVDKKVEPKSCDKTHTSPPSPAPELLGGPSVFLFPPKPKDTLMISRTPEVTCVVVDVSHEEPEVKFNWYVDGVEVHNAKTKPREEQYNSTYRVVSVLTVLHQDWLNGKEYKCKVSNDALPMPIEETISKAKGQPREPQVYTLPPSRDELTKNQVSLTCLVKGFYPSDIAVEWESNGQPENNYKTTPPYLDSDGSFFLYSDLTVDKSRWQQGNVFSCSVMHEALHNHYTQESLSLSP
light: DIQMTQSSSSFSVSLGDRVTITCKASEDIYNRLAWYQQKPGNAPRLLISGATSLETGVPSRFSGSGSGKDYTLSITSLQTEDVATYYCQQYWSTPYTFGGGTKLEVKRTVAAPSVFIFPPSDEQLKSGTASVVCLLNNFYPREAKVQWKVDNALQSGNSQESVTEQDSKDSTYSLSSTLTLSKADYEKHKVYACEVTHQGLSSPVTKSFNRGEC
molar binding ratio [1]: 0.54 molar ratio
molar binding ratio [2]: 0.38 molar ratio

B3: antibody-half molecule B3 with IC17H and IC17L-k0 (IC17H-DB405v2/IC17L-k0) (antibody, human IgG1, kappa)
heavy: B1 heavy with D408T
light: B1 light
molar binding ratio [4]: 0.54 molar ratio

B6: antibody-half molecule B6 with IC17H and IC17L-k0 (IC17H-DB220v2.n.n/IC17L-k0) (antibody, human IgG1, kappa)
heavy: B1 heavy with E438K
light: B1 light
molar binding ratio [7]: 0.42 molar ratio

B7: antibody-half molecule B7 with IC17H and IC17L-k0 (IC17H-DB220v2.n.HATF.A/IC17L-k0) (antibody, human IgG1, kappa)
heavy: B1 heavy with S363H, F404A, E438K
light: B1 light
molar binding ratio [8]: 0.32 molar ratio

Second part, the binder after the results:

molar binding ratio [3]: 0.63 molar ratio
B2: antibody-half molecule B2 with IC17H and IC17L-k0 (IC17H-DB402v2/IC17L-k0) (antibody, human IgG1, kappa)
heavy: B1 heavy with D408H
light: B1 light

molar binding ratio [5]: 0.25 molar ratio
B4: antibody-half molecule B4 with IC17H and IC17L-k0 (IC17H-DB424v2/IC17L-k0) (antibody, human IgG1, kappa)
heavy: B1 heavy with E356N
light: B1 light

molar binding ratio [6]: 0.27 molar ratio
B5: antibody-half molecule B5 with IC17H and IC17L-k0 (IC17H-DB430v2/IC17L-k0) (antibody, human IgG1, kappa)
heavy: B1 heavy with E356L
light: B1 light
